Assay [1] addresses T1, human CD112R on GS-J2C/CD112R effector cells (human, UniProt Q6DKI7 1-326).
T1 sequence (looked up): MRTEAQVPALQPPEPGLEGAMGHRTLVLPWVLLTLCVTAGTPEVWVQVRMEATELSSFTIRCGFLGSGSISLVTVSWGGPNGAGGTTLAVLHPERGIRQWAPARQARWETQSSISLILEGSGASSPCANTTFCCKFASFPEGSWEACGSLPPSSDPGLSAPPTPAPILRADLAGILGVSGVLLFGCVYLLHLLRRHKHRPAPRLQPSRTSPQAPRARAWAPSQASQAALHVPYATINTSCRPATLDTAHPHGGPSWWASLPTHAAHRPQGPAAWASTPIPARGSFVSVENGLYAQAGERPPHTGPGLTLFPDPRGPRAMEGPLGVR
Nature of the assay: cell-based or functional assay.

Assay [2] addresses T2, human CD112R on antigen-specific CD8+ T cells (human, UniProt Q6DKI7 1-326).
T2 sequence (looked up): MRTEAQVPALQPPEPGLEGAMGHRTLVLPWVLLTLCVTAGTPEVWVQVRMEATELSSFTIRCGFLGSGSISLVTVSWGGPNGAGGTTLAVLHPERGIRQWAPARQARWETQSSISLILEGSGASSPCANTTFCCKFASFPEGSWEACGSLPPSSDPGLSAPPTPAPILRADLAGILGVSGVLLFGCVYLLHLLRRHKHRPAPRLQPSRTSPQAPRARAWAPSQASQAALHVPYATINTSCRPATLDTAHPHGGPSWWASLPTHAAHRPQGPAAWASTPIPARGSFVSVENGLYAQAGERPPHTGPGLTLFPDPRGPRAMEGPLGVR
Nature of the assay: cell-based or functional assay.

Assay [3] addresses T3, human CD112R antigen protein huCD112R-His (Acro Biosysterm, PVG-H52H4) (human, UniProt Q6DKI7 41-171).
T3 construct: purchased; also called human antigen protein; not shown: His tag
T3 sequence (looked up): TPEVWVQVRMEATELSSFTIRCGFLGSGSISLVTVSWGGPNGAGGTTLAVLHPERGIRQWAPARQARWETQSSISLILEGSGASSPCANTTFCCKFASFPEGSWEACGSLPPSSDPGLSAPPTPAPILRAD
Kind of assay: ELISA, huCD112R-His coated on plate. Background: An ELISA detects its analyte on a solid surface through an enzyme-linked reagent.

In assay [4] the target is T4, monkey antigen protein (monkey CD112R, Uniprot ID: A0A2K5WVV8) (monkey, UniProt A0A2K5WVV8 41-171).
T4 sequence: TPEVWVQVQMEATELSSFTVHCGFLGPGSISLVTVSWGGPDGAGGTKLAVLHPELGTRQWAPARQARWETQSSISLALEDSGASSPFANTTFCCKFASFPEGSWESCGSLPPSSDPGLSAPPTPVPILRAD
Kind of assay: ELISA, monkey antigen protein (as Example 6.1).

Assay [5] addresses T3, human CD112R antigen protein …. Kind of assay: SPR (Biacore X100), antibody captured on Protein A chip, huCD112R-His as analyte, 1:1 Langmuir.

B1: C18 (antibody, human IgG1, kappa, V domains shown)
VH: EVQLVESGGGLVKPGGSLKLSCAASGFTFSDYYMYWVRQTPEKRLEWVATISDGGGFIYYPDSVKGRFTISRDNDRNSLYLLMSSLKSEDTAMYFCGREDLWGQGTSVTVSS
VL: DIQMTQSPSSLSASLGERVSLTCRASQDIGRSLNWLQQGPDGTVKRLIYATSRLDSGVPTRFSGSRSGSDYSLTISSLESEDFVDYYCLQYASFPYTFGGGTKLEIKR
Broadly, the EC50 is the midpoint of the concentration-response curve. As a reminder, the Kd is a measure of binding affinity in units of concentration. On to B1, for which the “EC50 (Blocking effects of the antibodies, reporter gene method)” value in assay [1] was 0.034 µg/mL. In assay [2], the “IFN-γ(pg/ml) at 0.5µg/ml antibody” value worked out at 748 pg/mL and the “IFN-γ(pg/ml) at 5µg/ml antibody” value came out at 802 pg/mL. The midpoint of the response in assay [3], the EC50, lay at 0.069 nM. In assay [4], this molecule returned an EC50 of 0.069 nM. Also, the Kd in assay [5] came to 0.206 nM.

B2: C19 (antibody, human IgG1, kappa, V domains shown)
VH: EVQLVESGGGLVKPGGSLKLSCAASGFTFSDYYMYWVRQTPEKRLEWVATISDAGGYTYYPDSVKGRFTISRDNARNSLYLQMSSLKSEDTAMYFCGREDLWGQGTSVTVSS
VL: DIQMTQSPSSLSASLGERVSLTCRASQDIGYSLNWLQQEPDGSVRRLIYATSRLDSGVPKRFSGSRSGSDYSLTISSLESEDFVDYYCLQYASFPYTFGGGTKLEIKR
In the case of B2, in assay [1], the “EC50 (Blocking effects of the antibodies, reporter gene method)” value stood at 0.033 µg/mL. Besides, in assay [2], the “IFN-γ(pg/ml) at 0.5µg/ml antibody” value came out at 571 pg/mL, the “IFN-γ(pg/ml) at 5µg/ml antibody” value was 744 pg/mL and the “IFN-γ(pg/ml) at 50µg/ml antibody” value came out at 829 pg/mL. In addition, the EC50 in assay [3] turned out to be 0.043 nM. The same molecule came in with an EC50 in assay [4] of 0.034 nM. Also, binding in assay [5] was put at a Kd of 0.567 nM.

B3: C20 (antibody, human IgG1, kappa, V domains shown)
VH: EVQLVESGGGLVKPGGSLKLSCAASGFTFSDSYMCWVRQTPEKRLEWVATISDAGGYTYYPDSVKGRFTISRDNDRNNLYLQMSGLKSEDTAVYYCGREDLWGQGTSVTVSS
VL: DIQMTQSPSSLSASLGERVSLTCRASQDIGRSLNWLQQEPDGTIKRLIYATSRLDSGVPKRFSGSRSGSDYSLTISSLESEDFVDYYCLQYASSPYTFGGGTKLEIKR
B3: the “EC50 (Blocking effects of the antibodies, reporter gene method)” value in assay [1] was found to be 0.025 µg/mL. Besides, the “IFN-γ(pg/ml) at 0.5µg/ml antibody” value in assay [2] came to 708 pg/mL. The “IFN-γ(pg/ml) at 5µg/ml antibody” value in assay [2] was 835 pg/mL. In addition, the concentration for a half-maximal effect (EC50) in assay [3] is 2.27 nM; in assay [4] it was 8.36 nM. For the same molecule, the affinity in assay [5], expressed as Kd, was 0.114 nM.

B4: C24 (antibody, human IgG1, kappa, V domains shown)
VH: QVQLKQSGPGLVQPSQNLSITCTVSGFSLTGYGINWVRQSPGKGLEWLGVIWSGGNTEYNAAFRSRLSISKDTSKSQVFLKMNSLQADDTAIYSCARDSTGLYAMDYWGPGTSVTVSS
VL: DLQMTQTTSSLSASLGDRVTISCRTSQDISNFLNWYQQKPDGPLKLLIYYTSRLHSGVPSRFSGSGSGTDYSLTISNLEQEDIATYFCQQGYMLPPTFGGGTKLEIKR
As for B4, the “EC50 (Blocking effects of the antibodies, reporter gene method)” value in assay [1] came out at 0.05 µg/mL. In addition, in assay [2], the “IFN-γ(pg/ml) at 0.5µg/ml antibody” value amounted to 611 pg/mL, the “IFN-γ(pg/ml) at 5µg/ml antibody” value was found to be 656 pg/mL and the “IFN-γ(pg/ml) at 50µg/ml antibody” value was 733 pg/mL. This molecule returned a concentration giving a half-maximal response (EC50) in assay [3] of 0.048 nM. The same molecule gave an EC50 in assay [4] of 0.169 nM. Moreover, the dissociation constant Kd in assay [5] turned out to be 0.0467 nM.

B5: C14 (antibody, human IgG1, kappa, V domains shown)
VH: QVQLQQPGAELVRPGTSVKLSCKASGNTFTSYWMHWVKQRPGQGHEWIGVIDASDSNTKYNQKFKGKATLTVDTSSSTAYMQLSSLTSEDSAVYYCARYYSGSSYGLDYWGQGTTLTVSS
VL: DIQMTQTASSLSASLGDRVTISCRASQDISNYLNWYQQKPDGTVKLLIYYTSRLHSGVPSRFSGSGSGTDFSLTITHLEQEDIASYFCQQGNMFPPTFGGGTKLEIKR
For the molecule B5, the “EC50 (Blocking effects of the antibodies, reporter gene method)” value in assay [1] came to 0.052 µg/mL. In assay [2], the “IFN-γ(pg/ml) at 0.5µg/ml antibody” value was found to be 619 pg/mL, the “IFN-γ(pg/ml) at 5µg/ml antibody” value is 674 pg/mL and the “IFN-γ(pg/ml) at 50µg/ml antibody” value came to 759 pg/mL. Also, the 50% effective concentration (EC50) in assay [3] worked out at 0.052 nM. For the same molecule, in assay [4], the EC50 is 0.067 nM. Besides, the affinity in assay [5], expressed as Kd, was 0.0687 nM.

Source of the values: patent EP4644419A1 (Hangzhou Zhongmeihuadong Pharmaceutical Co., Ltd., dated 2025).
